Here are results for 4 molecules from article PMC5967339, “Rhodopsin-cyclases for photocontrol of cGMP/cAMP and 2.3 Å structure of the adenylyl cyclase domain” (Nature Communications, 2018).

In data set [1] the test system is T1, Nc1ncnc2c1ncn2[C@@H]1O[C@H](COP(=O)(O)OP(=O)(O)OP(=O)(O)O)[C@@H](O)[C@H]1O.
T1 construct: CaAC is a homodimer in the crystal
The experiment in a line: RP-HPLC of cAMP, initial rates, Hill fit. The data set is classed as biochemical, Catenaria anguillulae. As to conditions: ATP/Mn2+, pH 7.5, 22 °C. The source says:
RP-HPLC of cAMP, initial rates, Hill fit on CaGC (mutant form: CaAC)

The subject of data set [2] is CaRhGC. The experiment in a line: RP-HPLC of cGMP, initial rates, Hill fit. As to conditions: GTP/Mn2+, pH 7.5, 22 °C, 522 nm light 0.010 mW mm^-2, dark activity subtracted, detergent. The data set is classed as biochemical, Catenaria anguillulae. The source says:
RP-HPLC of cGMP, initial rates, Hill fit on CaRhGC

Substrate in data set [3]: Nc1nc2c(ncn2[C@@H]2O[C@H](COP(=O)(O)OP(=O)(O)OP(=O)(O)O)[C@@H](O)[C@H]2O)c(=O)[nH]1
The experiment in a line: RP-HPLC of cGMP, initial rates, Hill fit. Type of data set: biochemical, Blastocladiella emersonii. As to conditions: GTP/Mn2+, pH 7.5, 22 °C, 522 nm light 0.010 mW mm^-2, dark activity subtracted, detergent. An excerpt: RP-HPLC of cGMP, initial rates, Hill fit on BeRhGC

Substrate in data set [4]: Nc1nc2c(ncn2[C@@H]2O[C@H](COP(=O)(O)OP(=O)(O)OP(=O)(O)O)[C@@H](O)[C@H]2O)c(=O)[nH]1
The experiment in a line: RP-HPLC of cGMP, initial rates, Hill fit. As to conditions: GTP/Mn2+, pH 7.5, 22 °C. The data set is classed as biochemical, Blastocladiella emersonii. The source says:
RP-HPLC of cGMP, initial rates, Hill fit on BeGC

What is called Km is the substrate concentration at which the rate is half of its maximum. As usually defined, the kcat is the number of substrate molecules converted per active site and unit of time at saturation. Broadly, the kcat/Km is the second-order rate constant that governs catalysis at low substrate concentration. Regarding “CaGC (mutant form: CaAC) (Catenaria anguillulae PL171; C201D/E132K)”, in data set [1], the Km is given as 6.09 ± 1.74 mM, the kcat is 1.012 s⁻¹ and the kcat/Km turned out to be 170 M⁻¹ s⁻¹.
Take `Nc1nc2c(ncn2[C@@H]2O[C@H](COP(=O)(O)OP(=O)(O)OP(=O)(O)O)[C@@H](O)[C@H]2O)c(=O)[nH]1` [GTP]: the Km in data set [2] was found to be 6.1 ± 5.59 mM.

B1: BeRhGC (Blastocladiella emersonii) (protein)
chain: MKDKDNNLRGACSSCNCPEYCFSPTSTLCDDCKCSVTKHPIVEQPLSRNGSFRSSGASLLPSPSSPNVKITSTVGLRSRKSESQANVRGSMISNSNSGSRSNNSGGAGGGSGGSSSSKGGSALANYQSAMSELWSWNMMLSTPSLKFLTVQFTTWIVLTTVGAIYTLFFHERQAYNRGWADIWYGYGAFGFGLGLSFAYMGFTGARNPEKKALSLCLLGVNFISFMSYIIIMLRLTPTIEGTMANPVEPARYLEWIATCPVLILLISEITQYPHDPYKVIVNDYALCLAGFVGAISAQQPWGDLAHFVSCLCFSYVVYSLWSCFTGAIDGETQCNVEKSGLRWIRFSTITTWSLFPITWFSYTSGLISFTVAEAGFSMIDIGAKVFLTLVLVNSTVEQAQNQKVDAITAIAEELENQINNCDAILQKMMPEGVLEQLKNGQATEAKEYESVTVFFSDITNFTVISSRTSTKDMMATLNKLWLEYDAIAKRWGVYKVETIGDAYLGVTGAPDVVPDHAERACNFAVDIIEMIKSFKTITGESINIRIGLNSGPVTAGVLGDLNPHWCLVGDTVNTASRMESTSKAGHIHISESTYHFIKSKFVTQPLDVMEVKGKGKMQTYWVLGRK
For B1, in data set [3], the Km is recorded as 0.92 ± 0.27 mM, the kcat turned out to be 1.07 s⁻¹ and the catalytic efficiency (kcat/Km) came to 1200 M⁻¹ s⁻¹.

B2: BeGC (Blastocladiella emersonii) (protein)
chain: TEAKEYESVTVFFSDITNFTVISSRTSTKDMMATLNKLWLEYDAIAKRWGVYKVETIGDAYLGVTGAPDVVPDHAERACNFAVDIIEMIKSFKTITGESINIRIGLNSGPVTAGVLGDLNPHWCLVGDTVNTASRMESTSKAGHIHISESTYHFIKSKFVTQPLDVMEVKGKGKMQTYWVLGRK
Take B2: in data set [4], the Michaelis-Menten constant (Km) worked out at 2.16 ± 0.30 mM, the kcat is 0.339 s⁻¹ and the kcat/Km is 160 M⁻¹ s⁻¹.
